T1: human FGFR4 (soluble, Part B: SPR and FGFR4 ELISA) (human, UniProt P22455 22-369)
T1 construct: Injected over immobilized IgG in SPR (0.48-1000 nM) and immobilized in the FGFR4 ELISA
T1 sequence: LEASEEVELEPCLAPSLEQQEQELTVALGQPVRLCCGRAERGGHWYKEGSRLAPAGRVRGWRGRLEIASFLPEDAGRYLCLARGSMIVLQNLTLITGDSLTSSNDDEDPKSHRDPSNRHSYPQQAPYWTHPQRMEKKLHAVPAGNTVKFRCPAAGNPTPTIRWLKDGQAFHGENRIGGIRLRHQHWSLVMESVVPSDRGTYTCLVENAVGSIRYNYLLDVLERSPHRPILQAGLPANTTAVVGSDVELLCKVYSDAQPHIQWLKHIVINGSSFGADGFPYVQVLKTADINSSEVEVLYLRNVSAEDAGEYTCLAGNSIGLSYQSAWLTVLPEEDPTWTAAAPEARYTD


Tests used:
[1] = molecular target: T1, human FGFR4 (soluble, Part B: SPR and …); test: surface plasmon resonance, compared with chLD1
[2] = molecular target: human FGFR4 expressed at the cell surface (human, UniProt P22455 22-802); test: cell-based or functional assay

| Binder | fold decrease of affinity against chLD1 [1] [fold] | CYP7α1 expression in HEP3B cells without added FGF19, fold increase [2] [fold] | CYP7α1 expression in HUH7 cells in the absence of FGF19, fold increase [2] [fold] | CYP7α1 expression in HUH7 cells in the presence of FGF19, fold increase [2] [fold] |
| --- | --- | --- | --- | --- |
| hLD1.vA (antibody, V domains shown) VH: EVQLVESGGGLVQPGGSLRLSCAASGYTFTNHWMNWVRQAPGKGLEWVGMIHPSDSETTLDQKFKDRFTISADTSKNTAYLQMNSLRAEDTAVYYCTRGDISLFDYWGQGTLVTVSS VL: DIQMTQSPSSLSASVGDRVTITCRTSQDISNFLNWYQQKPGKAPKLLIYYTSRLHSGVPSRFSGSGSGTDFTLTISSLQPEDFATYYCQQGNALPYTFGQGTKVEIKR | ~5 | – | – | – |
| chimeric LD1 (chLD1) (antibody, V domains shown) VH: EVQLQQPGAVLVRPGTSVKLSCKASGYTFTNHWMNWVKQRPGQGLEWIGMIHPSDSETTLDQKFKDKATLTVDKSSSTAYMQLNRPTSEDSAVYYCTRGDISLFDYWGQGTTVTVSS VL: DIQMTQTTSSLSASLGDRVTITCRTSQDISNFLNWYQQKPDGTFKILISYTSRLHSGVPSRFSGSGSGTDYSLTISTLEQEDFATYFCQQGNALPYTFGGGTKLEIE | – | 2 | 3.5 | 2.9 |

From patent US20160237157A1 (published 2016)
